B1: human apo-SUN2 (residues 522-717) (domain or fragment, UniProt Q9UH99 522-717, looked up)
chain: GVTEEQVHHIVKQALQRYSEDRIGLADYALESGGASVISTRCSETYETKTALLSLFGIPLWYHSQSPRVILQPDVHPGNCWAFQGPQGFAVVRLSARIRPTAVTLEHVPKALSPNSTISSAPKDFAIFGFDEDLQQEGTLLGKFTYDQDGEPIQTFHFQAPTMATYQVVELRILTNWGHPEYTCIYRFRVHGEPAH

Columns and labels:
SEC = target: the molecule itself; experiment: SEC
[1] = target: B1; experiment: SEC

Binder | stoichiometry N (SEC) | binding result [1]
B1 | 3 | –
TQANNFARSFYPMLRYTNGPPPT (peptide, UniProt Q8WXH0 6863-6885, looked up) [6xHis-sfGFP-KASH2 polypeptide (KASH2 residues 6863-6885)] | – | binds

Reference: PMC5544124 (Methods in enzymology, 2015)
